# Columns and labels:
# [1] = molecular target: T1, recombinant human TNF-α (Product 210-TA-050, R&D) (human, UniProt P01375 77-233); experiment: competition ELISA: biotin-TNF-α (10 ng/ml) on coated P75 receptor-Fc, antibody titrated; experiment 2
# T1 construct: Bought protein; Amine-coupled to the chip in SPR, biotin-labelled in the P75 ELISA, FITC-labelled in the U937 assay; also called rhTNF-α; Recombinant TNFα (R&D)
# Method: (§1) 10 μg/ml of P75 receptor-Fc fusion protein (which was prepared according to the method described in Chinese Patent Application No. 01132074.5 entitled “Recombinant genes, fusion genes and products of the soluble fragment of Tumor Necrosis Factor Receptor” filed on Oct. 31, 2001) was used to coat ELIAS plates and reacted at 37° C. for 2 h; 3% BSA-PBS was used to block the plate wells and reacted overnight at 4° C. […] The diluted samples and control samples were added to washed ELIAS plates with 100 μl/well and reacted at 37° C. for 1 h; the ELIAS plates were washed; HRP-avidin (Zymed) was diluted at 1:1000 with PBS and added to the ELIAS plates with 100 μl/well and reacted at 37° C. for 1 h; the ELIAS plates were washed; equal volumes of A solution and B solution (Jingmei BioTech Co. Ltd.) of TMB substrate for HRP were mixed and added to the ELIAS plates with 100 μl/well and reacted at room temperature for 10 minutes in darkness; each well was added with 100 μl of 0.5M sulphuric acid to stop the reaction. Absorbance at […] was measured using microplate reader. The concentration of samples was used as x-coordinate and absorbance was used as y-coordinate.
# [2] = molecular target: T1, recombinant human TNF-α (Product …); experiment: competition ELISA: biotin-TNF-α (10 ng/ml) on coated P75 receptor-Fc, antibody titrated; average of 3
# Method: as §1
# [3] = molecular target: T1, recombinant human TNF-α (Product …); experiment: flow cytometry competition: FITC-TNF-α (100 ng/ml) on U937 cells, antibody titrated; experiment 3
# Method: (§2) U937 cells (ATCC CRL1593) were cultured in RPMI-1640 medium (GIBCO) containing 10% fetal bovine serum (JRH). […] The cells at logarithmic growth phase were counted and then centrifuged at 200 g for 5 min. Supernatant was removed and cell pellets were resuspended in PBS containing 1% fetal bovine serum. The cells were adjusted to a concentration 1×10⁶/ml, and then distributed into flow cytometry test tubes, with 100 μl/tube. […] The diluted samples and control samples were added into flow cytometry test tubes, with 100 μl/tube, and reacted at 4° C. for 1 hour in darkness; the cells were washed twice with PBS containing 1% fetal bovine serum, and centrifuged at 200 g for 5 min each time. Supernatant was removed and cell pellets were resuspended in 300 μl of PBS containing 1% fetal bovine serum. Flow cytometry was used to measure the fluorescence intensity of each tube. Sample concentration was plotted on the x-coordinate and […] was plotted on the y-coordinate.
# [4] = molecular target: T1, recombinant human TNF-α (Product …); experiment: competition ELISA: biotin-TNF-α (10 ng/ml) on coated P75 receptor-Fc, antibody titrated; experiment 1
# Method: as §1
# [5] = molecular target: T1, recombinant human TNF-α (Product …); experiment: SPR, Biacore T100, TNFα amine-coupled to CM5 chip, antibody in flow
# Method: After each examination, they were washed with 5 μl of 50 mM hydrochloric acid aqueous solution at a flow rate of 3 μl/min so as to wash away the residual antibodies from the immobilized ligands. The binding curves were subjected to nonlinear regression analysis using BIAevalution software (T100 evalution version 2.0, Biacore).
# [6] = molecular target: T1, recombinant human TNF-α (Product …); experiment: flow cytometry competition: FITC-TNF-α (100 ng/ml) on U937 cells, antibody titrated; experiment 1
# Method: as §2
# [7] = molecular target: T1, recombinant human TNF-α (Product …); experiment: flow cytometry competition: FITC-TNF-α (100 ng/ml) on U937 cells, antibody titrated; average of 3
# Method: as §2
# [8] = molecular target: T1, recombinant human TNF-α (Product …); experiment: competition ELISA: biotin-TNF-α (10 ng/ml) on coated P75 receptor-Fc, antibody titrated; experiment 3
# Method: as §1
# [9] = molecular target: T1, recombinant human TNF-α (Product …); experiment: flow cytometry competition: FITC-TNF-α (100 ng/ml) on U937 cells, antibody titrated; experiment 2
# Method: as §2
# [10] = molecular target: T1, recombinant human TNF-α (Product …); experiment: cell-based or functional assay
# T1 sequence (P01375 77-233 limits assumed): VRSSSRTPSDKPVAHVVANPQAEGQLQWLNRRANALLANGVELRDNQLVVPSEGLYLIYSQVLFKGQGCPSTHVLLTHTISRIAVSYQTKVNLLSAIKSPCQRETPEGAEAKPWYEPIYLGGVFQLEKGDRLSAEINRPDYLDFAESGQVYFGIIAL
binder,measurement,setting,value
"fully human anti-TNF-α monoclonal antibody 4H16 (antibody, human IgG1, kappa, V domains shown, The genes carried a signal peptide at the 5' end; also called fully human antibody 4H16) VH: QVTLRESGPALVKPTQTLTLTCTFSGFSLSTSGMCVSWIRQPPGKALEWLALIDWDDDKYYSTSLKTRLTISKDTSKNQVVLTMTNMDPVDTATYYCARILVDIVATITNDAFDVWGQGTMVTVSS VL: not shown",IC50,[1],0.31 µg/mL
same,IC50,[2],0.28 µg/mL
same,IC50,[3],0.97 µg/mL
same,IC50,[4],0.25 µg/mL
same,Kd,[5],0.36 nM
same,koff,[5],5.7e-05 s⁻¹
same,kon,[5],158000 M⁻¹ s⁻¹
same,IC50,[6],0.89 µg/mL
same,IC50,[7],0.96 µg/mL
same,IC50,[8],0.27 µg/mL
same,IC50,[9],1.03 µg/mL
same,"IC50 of resistance to TNF-α-mediated killing of L929 cells (MTS), average",[10],57.2 ng/mL
same,"IC50 of resistance to TNF-α-mediated killing of L929 cells (MTS), experiment 1",[10],59.2 ng/mL
same,"IC50 of resistance to TNF-α-mediated killing of L929 cells (MTS), experiment 2",[10],45.9 ng/mL
same,"IC50 of resistance to TNF-α-mediated killing of L929 cells (MTS), experiment 3",[10],66.4 ng/mL
